Results as given in PMC10707181, “Neuronal Scaffold Protein ARMS Interacts with Synaptotagmin-4 C2AB through the Ankyrin Repeat Domain with an Unexpected Mode” (International Journal of Molecular Sciences, 2023).

B1: ARMS ankyrin repeats 1–11 (R1-11, residues 1–365) [rat] / Syt4 132–425 [human] (parent complex)
chain 1: MSVLISQSVINYVEEENIPALKALLEKCKDVDERNECGQTPLMLAAEQGNVEIVKELLKNGANCNLEDLDNWTALISASKEGHIHIVEELLKSGASLEHRDMGGWTALMWACYKGRTDVVELLLSHGANPSVTGLYSVYPIIWAAGRGHADIVHLLLQNGAKVNCSDKYGTTPLVWAARKGHLECVKHLLAMGADVDQEGANSMTALIVAVKGGYTQSVKEILKRNPNVNLTDKDGNTALMIASKEGHIEIVQDLLDAGTYVNIPDRSGDTVLIGAVRGGHVEIVRALLQKYADIDIRGQDNKTALYWAVEKGNATMVRDILQCNPDTEICTKDGETPLIKATKMRNIEVVELLLDKGAKVSAVD
chain 2: ESVSPESLKSSTSLTSEEKQEKLGTLFFSLEYNFERKAFVVNIKEARGLPAMDEQSMTSDPYIKMTILPEKKHKVKTRVLRKTLDPAFDETFTFYGIPYTQIQELALHFTILSFDRFSRDDIIGEVLIPLSGIELSEGKMLMNREIIKRNVRKSSGRGELLISLCYQSTTNTLTVVVLKARHLPKSDVSGLSDPYVKVNLYHAKKRISKKKTHVKKCTPNAVFNELFVFDIPCEGLEDISVEFLVLDSERGSRNEVIGQLVLGAAAEGTGGEHWKEICDYPRRQIAKWHVLCDG

Variants of: B1
Assay: ITC; parent: 1.2e+04 nM

Kd [µM]	Variant
4	chain 2 ESVSPESLKSSTSLTSEEKQEKLGTLFFSLEYNFERKAFVVNIKEARGLPAMDEQSMTSDPYIKMTILPEKKHKVKTRVLRKTLDPAFDETFTFYGIPYTQIQELALHFTILSFDRFSRDDIIGEVLIPLSGIELSEGKMLMNREIIKRNVAKSSGRGELLISLCYQSTTNTLTVVVLKARHLPKSDVSGLSDPYVKVNLYHAKKRISKKKTHVKKCTPNAVFNELFVFDIPCEGLEDISVEFLVLDSERGSRNEVIGQLVLGAAAEGTGGEHWKEICDYPRRQIAKWHVLCDG [chain 2 R152A]
19	chain 2 ESVSPESLKSSTSLTSEEKQEKLGTLFFSLEYNFERKAFVVNIKEARGLPAMDEQSMTSDPYIKMTILPEKKHKVKTRVLRKTLDPAFDETFTFYGIPYTQIQELALHFTILSFDRFSRDDIIGEVLIPLSGIELSEGKMLMNREIIAANVAKSSGRGELLISLCYQSTTNTLTVVVLKARHLPKSDVSGLSDPYVKVNLYHAKKRISKKKTHVKKCTPNAVFNELFVFDIPCEGLEDISVEFLVLDSERGSRNEVIGQLVLGAAAEGTGGEHWKEICDYPRRQIAKWHVLCDG [chain 2 K148A, chain 2 R149A, chain 2 R152A]
3	chain 2 ESVSPESLKSSTSLTSEEKQEKLGTLFFSLEYNFERKAFVVNIKEARGLPAMDEQSMTSDPYIKMTILPEKKHKVKTRVLRKTLDPAFDETFTFYGIPYTQIQELALHFTILSFDRFSRDDIIGEVLIPLSGIELSEGKMLMNREIIKRNVRASSGRGELLISLCYQSTTNTLTVVVLKARHLPKSDVSGLSDPYVKVNLYHAKKRISKKKTHVKKCTPNAVFNELFVFDIPCEGLEDISVEFLVLDSERGSRNEVIGQLVLGAAAEGTGGEHWKEICDYPRRQIAKWHVLCDG [chain 2 K153A]
4	chain 2 ESVSPESLKSSTSLTSEEKQEKLGTLFFSLEYNFERKAFVVNIKEARGLPAMDEQSMTSDPYIKMTILPEKKHKVKTRVLRKTLDPAFDETFTFYGIPYTQIQELALHFTILSFDRFSRDDIIGEVLIPLSGIELSEGKMLMNREIIKRNVAASSGRGELLISLCYQSTTNTLTVVVLKARHLPKSDVSGLSDPYVKVNLYHAKKRISKKKTHVKKCTPNAVFNELFVFDIPCEGLEDISVEFLVLDSERGSRNEVIGQLVLGAAAEGTGGEHWKEICDYPRRQIAKWHVLCDG [chain 2 R152A, chain 2 K153A]
3	chain 2 ESVSPESLKSSTSLTSEEKQEKLGTLFFSLEYNFERKAFVVNIKEARGLPAMDEASMTSDPYIKMTILPEKKHKVKTRVLRKTLDPAFDETFTFYGIPYTQIQELALHFTILSFDRFSRDDIIGEVLIPLSGIELSEGKMLMNREIIKRNVRKSSGRGELLISLCYQSTTNTLTVVVLKARHLPKSDVSGLSDPYVKVNLYHAKKRISKKKTHVKKCTPNAVFNELFVFDIPCEGLEDISVEFLVLDSERGSRNEVIGQLVLGAAAEGTGGEHWKEICDYPRRQIAKWHVLCDG [chain 2 Q55A]
10	chain 2 ESVSPESLKSSTSLTSEEKQEKLGTLFFSLEYNFERKAFVVNIKEARGLPAMDEQSMTSDPYIKMTILPEKKHKVKTRVLRKTLDPAFDETFTFYGIPYTQIQELALHFTILSFDRFSRDDIIGEVLIPLSGIELSEGKMLMNREIIKRNVRKSSGAGELLISLCYQSTTNTLTVVVLKARHLPKSDVSGLSDPYVKVNLYHAKKRISKKKTHVKKCTPNAVFNELFVFDIPCEGLEDISVEFLVLDSERGSRNEVIGQLVLGAAAEGTGGEHWKEICDYPRRQIAKWHVLCDG [chain 2 R157A]
9	chain 2 ESVSPESLKSSTSLTSEEKQEKLGTLFFSLEYNFERKAFVVNIKEARGLPAMDEQSMTSDPYIKMTILPEKKHKVKTRVLRKTLDPAFDETFTFYGIPYTQIQELALHFTILSFDRFSRDDIIGEVLIPLSGIELSEGKMLMNREIIAANVRKSSGRGELLISLCYQSTTNTLTVVVLKARHLPKSDVSGLSDPYVKVNLYHAKKRISKKKTHVKKCTPNAVFNELFVFDIPCEGLEDISVEFLVLDSERGSRNEVIGQLVLGAAAEGTGGEHWKEICDYPRRQIAKWHVLCDG [chain 2 K148A, chain 2 R149A]
